Measured values: paper PMC4263763, “Crystal Structure of Calcium Binding Protein-5 from Entamoeba histolytica and Its Involvement in Initiation of Phagocytosis of Human Erythrocytes” (PLoS Pathogens, 2014)
“And” between values parts separate entries of the source, which are not always exact repeats. Equal entries are not always repeated. “Also recorded” adds a separate entry of the source.

Experiments:
EhCaBP5 [1] = test: SPR binding of native and mutated IQ motif peptides (analyte) to immobilized EhCaBP5 (model validation); design: species or system Entamoeba histolytica; settings: peptide as analyte, 25°C
Experimental: To validate EhCaBP5-IQ motif complex model, we obtained commercially synthesized two mutated Myosin 1B IQ motif peptide IQ-M1 A*A*KAWKGYRNRKR (where IQ is mutated to AA) and IQ-M2 IQKAWKGYD*ND*KD* (Where R is mutated to D). The EhCaBP5 was immobilized on sensor chip up to 500 resonance units and native myosin 1B IQ motif peptide and mutated IQ motif peptide were passed as analyte at concentration of […]. The data were recorded at 25°C and data analysis was performed using Biacore […] SPR Kinetics evaluation software.

[2] = molecular target: IQ motif peptide of myosin 1B (native) (Entamoeba histolytica); test: SPR
[3] = molecular target: Entamoeba histolytica calcium binding protein-5 (EhCaBP5), recombinant (Entamoeba histolytica); test: SPR; EhCaBP5 immobilised on sensor chip up to 500 RU; native and mutated IQ motif peptides as analyte at 25, 50, 75, 100 and 125 mM (so in the source); 25°C
EhCaBP5 [4] = test: SPR binding of EhCaBP5 (analyte) to immobilized myosin IQ motif peptides; design: species or system Entamoeba histolytica; settings: Biacore T200, peptide immobilized (2000 RU, CM4 chip), EhCaBP5 as analyte, pH 7.4
Excerpt: The E. histolytica genome codes for two myosin, myosin I (accession number EAL48894) and myosin II (accession number EAL51645). Myosin I has one IQ motif and myosin II has two IQ motifs. To check the interaction between EhCaBP5 and myosin IQ motifs, we commercially synthesized (obtained) peptides of IQ motif of myosin 1B (unconventional myosin) (IQKAWKGYRNRKR) and second IQ motif of heavy chain myosin (myosin II) ([…]), which is expected to bind to ELC. For the binding study we used Biacore T200 apparatus (Biacore, GE Healthcare) at National Institute of Plant and Genome Research New Delhi, India. A total of 2000 resonance units (RU) of peptides were immobilized on a research grade S series CM4 sensor chip in 10 mM sodium acetate, pH 5.0 according to the manufacturer's amine coupling kit. After peptide immobilization, the surface was blocked with 1 M ethanolamine at pH 8.5, followed by regeneration using 50 mM NaOH. The interaction experiments were performed using buffer containing 10 mM HEPES pH 7.4, 150 mM NaCl and 0.2 mM Calcium chloride. We also performed interaction experiment in absence of Ca^2+ and supplementing 5 mM of EGTA in the above buffer. […] The association kinetics for EhCaBP5 was monitored for 300 seconds and dissociation was monitored for the next 300 seconds.

myosin 1B = test: Co-immunoprecipitation of myosin 1B from total cell lysate; assay type: binding, Entamoeba histolytica; settings: immobilized anti-EhCaBP5 antibody, 800 µg E. histolytica lysate, 6 h at 4°C, with EGTA; western blot
Experimental: Immunoprecipitation was carried out as described previously. Briefly, CNBr-activated Sepharose-4B beads (Pharmacia) were conjugated with anti-EhCaBP5 antibody. Crude immunoglobulins were collected from the immunized serum using 40% ammonium sulphate and subsequently dialysed in coupling buffer (bicarbonate buffer). Usually, 10 mg immunoglobulin protein was added per gram of CNBr-activated Sepharose-4B beads. The resin was mixed gently for 18 h at 4°C. The conjugated Sepharose beads were incubated with E. histolytica lysate for 6 h at 4°C. The beads were then washed thrice with wash buffer (10 mM Tris-Cl (pH 7.5), 150 mM NaCl, 1 mM imidazole, 1 mM magnesium acetate, 2 mM β-ME and protease inhibitor cocktail). Ca^2+ and EGTA were maintained throughout the process as required. After incubation the beads were washed sequentially with 60 mM Tris-Cl (pH 6.8), 100 mM NaCl and with 60 mM Tris-Cl (pH 6.8). The pellet was suspended in 2× SDS polyacrylamide gel electrophoresis (PAGE) buffer and boiled for 5 min followed by centrifugation for 5 min. The proteins were then analysed by western blotting.

[5] = ITC; ref [17]; cited from earlier work
Excerpt: Overall, the molecule is divided in two globular lobes, where each lobe has four alpha helices connected by loops. The N-terminal lobe has one EF-hand motif with a calcium ion bound to the loop between two helices. The C-terminal lobe has two small anti-parallel beta strands along with four loops (Fig. 1A). Signature residues of an additional EF-hand motif are found in the C-terminal lobe (residues87 to 98). In the crystal structure these residues form a loop between two helices similar to that of a typical EF-hand but density for Ca^2+ is not observed. Consistent with the crystals structure, ...

F-actin = test: Co-sedimentation assay with F-actin; assay type: binding; settings: in vitro, pellet fraction containing F-actin

## A*A*KAWKGYRNRKR [IQ-M1, mutated Myosin 1B IQ motif peptide IQ-M1 (where IQ is mutated to AA)]
EhCaBP5 [1]
  change in Kd versus native peptide (in words): could not find any significant change in Kd value

## Entamoeba histolytica calcium binding protein-5 (EhCaBP5), recombinant (natural protein)
[2]
  Kd: 2.4 nM and 5.4 nM

## IQ motif peptide of myosin 1B (native)
[3]
  Kd: 0.64 nM

## LQACARAFAARKHFS [myosin II IQ motif]
EhCaBP5 [4]
  binding to EhCaBP5 (in words): does not bind

B1: EhCaBP5: calcium binding protein 5 from E. histolytica (accession number EAL46660) (protein)
chain: MQKHNEDLKESFLLFDGDGDGYLTLNEFESLVRVLGVVMETSAIASTYNSNSKVRGMSYELFTSCFSQLKTKSFNKDEIKTAINVLDKDKKGFIPAIELRRILSTIGDNMEQKEITDLFTFMGIDEQGVVKVDDFINQLMTVFK
Myosin 1B
  co-precipitation of myosin 1B (in words): precipitated myosin 1B along with EhCaBP5 even in the presence of EGTA
[5]
  number of Ca^2+ binding sites: one
F-actin
  co-sedimentation with / binding to F-actin (in words): No significant amount of EhCaBP5 was observed in the pellet fraction containing F-actin; also recorded: does not bind F-actin
